IntAct's records for PubMed 17923090

What follows are substances tested against stat1_human STAT1 (UniProt P42224).
stat1_human STAT1, sequence (P42224 whole entry): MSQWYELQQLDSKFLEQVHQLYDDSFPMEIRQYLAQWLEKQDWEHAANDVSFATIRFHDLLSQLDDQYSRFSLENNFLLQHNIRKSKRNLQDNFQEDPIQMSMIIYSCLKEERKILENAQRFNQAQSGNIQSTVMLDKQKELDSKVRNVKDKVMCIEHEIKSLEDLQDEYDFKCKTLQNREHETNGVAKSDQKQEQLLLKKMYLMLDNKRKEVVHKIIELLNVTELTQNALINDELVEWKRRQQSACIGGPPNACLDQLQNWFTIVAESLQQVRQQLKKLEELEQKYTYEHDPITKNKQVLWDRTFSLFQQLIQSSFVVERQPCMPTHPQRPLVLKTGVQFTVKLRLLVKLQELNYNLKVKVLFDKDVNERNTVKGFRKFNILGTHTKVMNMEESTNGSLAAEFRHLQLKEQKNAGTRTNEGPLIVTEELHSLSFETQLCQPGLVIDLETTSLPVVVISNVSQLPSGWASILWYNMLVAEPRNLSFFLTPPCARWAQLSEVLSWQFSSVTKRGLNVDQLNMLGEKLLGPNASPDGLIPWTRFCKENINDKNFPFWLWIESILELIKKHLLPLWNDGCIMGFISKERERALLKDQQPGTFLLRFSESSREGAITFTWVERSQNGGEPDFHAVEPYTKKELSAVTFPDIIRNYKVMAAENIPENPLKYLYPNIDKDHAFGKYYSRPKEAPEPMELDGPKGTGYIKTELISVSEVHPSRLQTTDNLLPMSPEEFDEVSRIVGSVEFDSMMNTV

**Q.** How did the “effect of a mutation on the interaction” value turn out when “Signal transducer and activator of transcription 2 (Homo sapiens), P52630 K384R” was run?
**A.** decreasing interaction

**Q.** “Signal transducer and activator of transcription 2 (Homo sapiens), P52630 K390R” was tested. Which “effect of a mutation on the interaction” value did it give?
**A.** increasing interaction

**Q.** How did the “effect of a mutation on the interaction” value turn out when “Signal transducer and activator of transcription 2 (Homo sapiens), P52630 K415R” was run?
**A.** increasing interaction

**Q.** How did the “effect of a mutation on the interaction” value turn out when “Signal transducer and activator of transcription 2 (Homo sapiens), P52630 K419R” was run?
**A.** decreasing interaction
